Reference: paper PMC12635394, “UBE2O-mediated ubiquitylation directs cytoplasmic CTNNA1 to promote cell-to-ECM adhesions” (EMBO Reports, 2025)
Values belong to the binder of their own block, whether it stands above or below them.

Legend:
[1] = molecular target: T1, Flag-UBE2O-TwinStrep (purified full-length human UBE2O, wild type) (human, UniProt Q9C0C9 1-1292); test: pull-down; 0.1 μM purified Flag-UBE2O-TS mixed with 0.1 μM purified CTNNA1-Myc in lysis buffer, captured on anti-c-Myc magnetic beads, 4 °C, 1.5 h, immunoblot; settings: both partners purified
T1 construct: UBE2O, human, full-length WT in N-terminal Flag-tagged and C-terminal TwinStrep-tagged pLV vector; also called Flag-UBE2O-TS; Flag-UBE2O-WT-TwinStrep; source: Expi293F, transfected, purified (Strep-Tactin XT, Superdex 200); not shown: Flag, N-terminal, kept; TwinStrep, C-terminal, kept
T1 sequence (looked up): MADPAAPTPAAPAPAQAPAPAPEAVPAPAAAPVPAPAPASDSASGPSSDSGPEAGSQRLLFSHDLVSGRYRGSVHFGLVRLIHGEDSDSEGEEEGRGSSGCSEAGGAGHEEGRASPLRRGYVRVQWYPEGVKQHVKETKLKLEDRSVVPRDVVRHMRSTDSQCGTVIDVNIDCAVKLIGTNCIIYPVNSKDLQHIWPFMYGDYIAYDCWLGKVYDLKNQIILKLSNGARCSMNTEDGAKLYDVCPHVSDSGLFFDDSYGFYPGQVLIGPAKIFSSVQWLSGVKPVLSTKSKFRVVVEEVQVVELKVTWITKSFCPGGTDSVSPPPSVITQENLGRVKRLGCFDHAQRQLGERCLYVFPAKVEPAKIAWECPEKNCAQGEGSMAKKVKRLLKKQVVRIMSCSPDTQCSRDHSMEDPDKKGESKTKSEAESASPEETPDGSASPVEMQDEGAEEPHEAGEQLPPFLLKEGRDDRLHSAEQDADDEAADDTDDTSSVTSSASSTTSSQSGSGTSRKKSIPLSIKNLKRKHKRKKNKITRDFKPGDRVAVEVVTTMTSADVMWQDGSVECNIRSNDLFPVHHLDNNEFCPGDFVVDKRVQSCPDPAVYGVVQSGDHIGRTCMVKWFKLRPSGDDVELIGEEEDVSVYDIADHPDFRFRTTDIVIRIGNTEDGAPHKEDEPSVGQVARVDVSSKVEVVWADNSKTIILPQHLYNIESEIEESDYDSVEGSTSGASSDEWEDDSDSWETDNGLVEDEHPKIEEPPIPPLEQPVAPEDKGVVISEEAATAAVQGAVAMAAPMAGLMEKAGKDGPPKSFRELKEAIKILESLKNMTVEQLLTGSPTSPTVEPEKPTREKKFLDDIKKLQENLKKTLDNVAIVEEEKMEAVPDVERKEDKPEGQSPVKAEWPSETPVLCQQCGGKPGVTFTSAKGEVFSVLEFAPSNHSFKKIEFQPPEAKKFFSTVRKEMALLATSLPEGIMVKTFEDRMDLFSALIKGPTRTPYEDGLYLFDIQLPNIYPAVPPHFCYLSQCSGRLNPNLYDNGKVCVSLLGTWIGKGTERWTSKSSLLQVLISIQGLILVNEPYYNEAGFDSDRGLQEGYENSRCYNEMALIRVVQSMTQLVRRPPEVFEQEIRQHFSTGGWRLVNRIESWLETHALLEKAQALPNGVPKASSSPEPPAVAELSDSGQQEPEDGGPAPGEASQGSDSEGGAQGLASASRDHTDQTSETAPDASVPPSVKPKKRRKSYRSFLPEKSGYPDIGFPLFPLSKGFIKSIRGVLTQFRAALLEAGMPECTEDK

[2] = molecular target: T1, Flag-UBE2O-TwinStrep (purified …); test: pull-down; 0.1 μM CTNNA1-V5 pre-incubated overnight at 4 °C with 0, 25 or 50 nM His-GST-β-catenin, captured on BSA-blocked V5-Trap beads, washed, then 0.1 μM Flag-UBE2O-TS for 1.5 h at 4 °C, immunoblot; settings: both partners purified

binding result [1]: binds
B1: CTNNA1-Myc (purified mouse CTNNA1 with C-terminal Myc tag) (natural protein, UniProt P26231 1-906, looked up)
chain: MTAVHAGNINFKWDPKSLEIRTLAVERLLEPLVTQVTTLVNTNSKGPSNKKRGRSKKAHVLAASVEQATENFLEKGDKIAKESQFLKEELVVAVEDVRKQGDLMKSAAGEFADDPCSSVKRGNMVRAARALLSAVTRLLILADMADVYKLLVQLKVVEDGILKLRNAGNEQDLGIQYKALKPEVDKLNIMAAKRQQELKDVGNRDQMAAARGILQKNVPILYTASQACLQHPDVAAYKANRDLIYKQLQQAVTGISNAAQATASDDAAQHQGGSGGELAYALNNFDKQIIVDPLSFSEERFRPSLEERLESIISGAALMADSSCTRDDRRERIVAECNAVRQALQDLLSEYMGNAGRKERSDALNSAIDKMTKKTRDLRRQLRKAVMDHVSDSFLETNVPLLVLIEAAKNGNEKEVKEYAQVFREHANKLIEVANLACSISNNEEGVKLVRMSASQLEALCPQVINAALALAAKPQSKLAQENMDLFKEQWEKQVRVLTDAVDDITSIDDFLAVSENHILEDVNKCVIALQEKDVDGLDRTAGAIRGRAARVIHVVTSEMDNYEPGVYTEKVLEATKLLSNTVMPRFTEQVEAAVEALSSDPAQPMDENEFIDASRLVYDGIRDIRKAVLMIRTPEELDDSDFETEDFDVRSRTSVQTEDDQLIAGQSARAIMAQLPQEQKAKIAEQVASFQEEKSKLDAEVSKWDDSGNDIIVLAKQMCMIMMEMTDFTRGKGPLKNTSDVISAAKKIAEAGSRMDKLGRTIADHCPDSACKQDLLAYLQRIALYCHQLNICSKVKAEVQNLGGELVVSGVDSAMSLIQAAKNLMNAVVQTVKASYVASTKYQKSQGMASLNLPAVSWKMKAPEKKPLVKREKQDETQTKIKRASQKKHVNPVQALSEFKAMDSI
notes: αE-catenin (CTNNA1), mouse; full-length Ctnna1 in C-terminal Myc-tagged pGEX-6P-1; also called mCTNNA1-Myc; pGEX-6P-1-CTNNA1-Myc; source: E. coli BL21 (DE3), purified (glutathione resin, GST removed with PreScission protease); not shown: Myc, C-terminal, kept

binding result [2]: binds
B2: CTNNA1-V5 (purified mouse CTNNA1 with C-terminal V5 tag) (natural protein, UniProt P26231 1-906, looked up)
chain: B1 chain
notes: αE-catenin (CTNNA1), mouse; full-length Ctnna1 in C-terminal V5-tagged pGEX-6P-1; As the unmodified 'CTNNA1' bait it went through the ubiquitylation reaction without ATP before capture on V5-Trap; also called mCTNNA1-V5; CTNNA1 bait; source: E. coli BL21 (DE3), purified (glutathione resin, GST removed with PreScission protease); not shown: V5, C-terminal, kept
